The text below walks through data of US20210047432A1 (DIACCURATE, published 2021).

By IC50 is commonly meant the concentration needed to halve the response being measured. In general, Kd refers to the concentration at which binding is half-saturated. As a reminder, the koff is a measure of how fast the partners let go of each other. By kon is commonly meant the rate constant with which the complex forms. For orientation: t½ means the time in which the quantity being followed falls by half.

The target in assay [1] is T1, recombinant human sPLA2-GIB (mature secreted group IB pancreatic phospholipase A2) (human, UniProt P04054 23-148).
T1 construct: also called sPLA2-IB; PLA2-GIB mature form
The assay is described as follows: competitive ELISA: constant antibody premixed with dilutions of soluble antigen, free antibody caught on antigen-coated plate. On the procedure: (§1) Binding affinities of the humanized antibodies to pro-sPLA2-GIB and sPLA2-GIB were measured by plate-based competition immunoassay. For the competition ELISA, briefly, constant amounts of antibody at different levels were premixed with serial dilutions of antigen protein, human sPLA2-GIB or pro-sPLA2-GIB, ranging from 0 to 10 μg/ml, and incubated for two hours at room temperature to reach pseudo-binding equilibrium between the antibody and antigen. These solutions were then transferred to 96-well sPLA2-GIB or pro-sPLA2-GIB pre-coated plates to allow the free-antibody in the mixtures to bind to plate-coated sPLA2-GIB or pro-sPLA2-GIB. The plates were typically coated with 30 to 100 ng of human sPLA2-GIB or pro-sPLA2-GIB protein in PBS solution overnight at 4° C. followed by BSA nonspecific blocking. After washing off excess antibody in solution, plate-bound antibodies were detected with an HRP-conjugated goat anti-mouse IgG or IgA polyclonal antibody reagent and developed using colorimetric substrate. The dependency of the signals on the concentrations of antigen in solution was analyzed with a 4-parameter fit analysis using Prism™ software (Graph Pad) and reported as IC50.
(§2) The respective binding affinities of the humanized antibodies to human pro-sPLA2-GIB and human sPLA2-GIB were measured by plate-based competition immunoassay. Briefly, constant amounts of antibody at different levels were premixed with serial dilutions of antigen proteins to reach pseudo-binding equilibrium between the antibody and antigen. These solutions were then transferred to antigen pre-coated plates to allow the free-antibody in the mixtures to bind to plate-coated sPLA2-GIB or pro-sPLA2-GIB. Plate-bound antibodies were detected with an HRP-conjugated polyclonal antibody. Data were fitted with a 4PL logistic non-linear regression model and the relative IC50 values were estimated from the model (Table 4).
Background: ELISA stands for enzyme-linked immunosorbent assay.

In assay [2] the target is T2, recombinant human pro-sPLA2-GIB (human, UniProt P04054 16-148).
T2 construct: also called pro-sPLA2-IB; proPLA2-GIB
The assay is described as above. On the procedure:
as §1, §2

Assay [3] deals with T1, recombinant human sPLA2-GIB (mature …). The experiment in a line: cell-based or functional assay.
Assay [4] has the same target. The assay is described as follows: SPR (BIAcore 2000), antibody captured, antigen in solution. Here is the method:
(§3) The affinity constants (KD) of the pro-sPLA2-GIB and sPLA2-GIB binding to the #2B, #2B1 and #2B2 antibodies were determined by surface kinetics on a real-time biosensor surface plasmon resonance assay (BIAcore™). More specifically, the affinity of the antibodies for human pro-sPLA2-IB and sPLA2-IB was measured using a BIAcore® 2000. The antibody was captured on an anti-mouse IgG surface and exposed to various concentrations of recombinant pro-sPLA2-IB and sPLA2-IB protein. Kinetic analysis using BIAevaluation™ software was performed to obtain the association and dissociation rate constants.
(§4) The affinity constants (KD) of the pro-sPLA2-GIB and sPLA2-GIB binding to #2B1 and #2B2 were determined by surface kinetics on a real-time biosensor surface plasmon resonance assay (BIAcore™). The antibody was captured on an anti-mouse IgG surface and exposed to various concentrations of recombinant pro-sPLA2-IB and sPLA2-IB protein. Kinetic analysis using BIAevaluation™ software was performed to obtain the association and dissociation rate constants (Table 7).
In general terms: Surface plasmon resonance follows binding to a sensor surface in real time, without labels.

Assay [5] has as its target T2, recombinant human pro-sPLA2-GIB. The description is as above. On the procedure:
as §3, §4

For assay [6], the target named is T3, human FcγRIIIA(V176) (human, UniProt P08637 17-254).
T3 construct: whole, on cells; also called hFcγRIIIA(V176)
The experiment in a line: flow cytometry, monomeric IgG (100 ng/mL) on CHO cells expressing the receptor. On the procedure: (§5) Monomeric IgG binding was tested by incubating the #2B, #2B1 and #2B2 antibodies (100 ng/mL) with 1×10⁵ CHO cells stably expressing human FcγRs for 30 min on ice. The cells were then washed, detached, fixed, and analyzed by flow cytometry (FACSCalibur; BD Biosciences).
(§6) The binding of monomeric #2B, #2B1 and #2B2 to human FcγRs was tested by flow cytometry by incubating the mAbs with CHO cells stably expressing human FcγRI, FcγRIIA (H131), FcγRIIA(R131), FcγRIIB, FcγRIIIA(F176), FcγRIIIA(V176), FcγRIIIB(NA1), FcγRIIIB(NA2), and FcγRIIIB(SH), (REF P. Bruhns). As presented in FIG. 9, #2B is binding to hFcγRI and hFcγRIIIA(V176) only, whereas no monomeric binding of #2B1 and #2B2 to all tested hFcγRs was observed. Antibody-antigen immune complex was tested by first incubating the mAb with the antigen and then, incubating the immune complexes formed with CHO cells stably expressing human FcγRs. The immune complexe of #2B is binding to all tested hFcγRs, except hFcγRIIB (FIG. 10). Weak binding is observed for immune complex of #2B1 to hFcγRIIIA(V176) (data not shown), whereas no immune complex binding of #2B2 to any tested hFcγRs (data not shown).
For orientation: Flow cytometry measures light scatter and fluorescence of single cells or particles in a stream.

The target in assay [7] is T4, human FcγRI (human, UniProt P12314 16-374).
T4 construct: whole, on cells; also called hFcγRI
Described as above. Here is the method:
as §5, §6

Assay [8] addresses T3, human FcγRIIIA(V176). The assay is described as follows: flow cytometry, monomeric IgG on CHO cells expressing the receptor. On the procedure: as §5, §6
The target of assay [9] is T4, human FcγRI. The assay is described as above. Here is the method:
as §5, §6

Assay [10] has as its target T5, human FcγRIIIA(F176) (human, UniProt P08637 17-254).
T5 construct: whole, on cells
Described as above. Here is the method:
as §5, §6

Assay [11] has as its target T6, human FcγRIIA (H131) (human, UniProt P12318 34-317).
T6 construct: whole, on cells; Allelic variant with His at 131 (mature numbering as printed)
T6 sequence (looked up): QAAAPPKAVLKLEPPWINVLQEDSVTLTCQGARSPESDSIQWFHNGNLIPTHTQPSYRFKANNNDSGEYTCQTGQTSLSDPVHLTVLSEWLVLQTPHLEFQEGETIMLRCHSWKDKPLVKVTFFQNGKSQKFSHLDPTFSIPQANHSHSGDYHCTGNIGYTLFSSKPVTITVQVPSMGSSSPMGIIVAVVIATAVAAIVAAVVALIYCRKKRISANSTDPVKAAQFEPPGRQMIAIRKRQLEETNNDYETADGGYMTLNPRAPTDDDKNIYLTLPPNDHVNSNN
The assay is described as above. On the procedure:
as §5, §6

The target in assay [12] is T7, human FcγRIIIB(SH) (human, UniProt O75015 17-200).
T7 construct: whole, on cells
The assay is described as above. Here is the method:
as §5, §6

Assay [13] concerns the target T8, human FcγRIIIB(NA1) (human, UniProt O75015 17-200).
T8 construct: whole, on cells
Described as above. On the procedure: as §5, §6

Assay [14] deals with T9, human FcγRIIA(R131) (human, UniProt P12318 34-317).
T9 construct: whole, on cells; Allelic variant with Arg at 131 (so in the source)
T9 sequence (looked up): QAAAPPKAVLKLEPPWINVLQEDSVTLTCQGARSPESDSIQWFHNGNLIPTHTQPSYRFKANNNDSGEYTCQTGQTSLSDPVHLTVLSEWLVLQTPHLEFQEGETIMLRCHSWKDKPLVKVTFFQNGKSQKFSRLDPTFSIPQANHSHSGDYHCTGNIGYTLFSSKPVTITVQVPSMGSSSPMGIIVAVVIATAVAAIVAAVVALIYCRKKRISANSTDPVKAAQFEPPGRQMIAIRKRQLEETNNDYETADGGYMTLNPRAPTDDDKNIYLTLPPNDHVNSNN
Described as above. Here is the method: as §5, §6

Assay [15] concerns the target T10, human FcγRIIIB(NA2) (human, UniProt O75015 17-200).
T10 construct: whole, on cells
Described as above. Here is the method: as §5, §6

For assay [16], the target named is T11, human FcγRIIB (human, UniProt P31994 43-310).
T11 construct: whole, on cells; also called hFcγRIIB
T11 sequence (looked up): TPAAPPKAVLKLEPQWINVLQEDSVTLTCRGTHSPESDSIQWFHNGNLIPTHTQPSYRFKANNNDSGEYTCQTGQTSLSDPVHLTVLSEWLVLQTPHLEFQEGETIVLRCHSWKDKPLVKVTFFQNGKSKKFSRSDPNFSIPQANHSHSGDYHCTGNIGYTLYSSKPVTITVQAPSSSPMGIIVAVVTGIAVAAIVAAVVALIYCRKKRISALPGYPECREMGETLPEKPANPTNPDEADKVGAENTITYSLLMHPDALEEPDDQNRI
The description is as above. Here is the method: as §5, §6

T1 sequence (P04054 23-148): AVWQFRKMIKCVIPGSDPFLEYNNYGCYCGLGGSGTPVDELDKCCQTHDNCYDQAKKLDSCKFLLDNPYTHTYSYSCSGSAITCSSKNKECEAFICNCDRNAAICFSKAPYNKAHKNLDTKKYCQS
T2 sequence (P04054 16-148): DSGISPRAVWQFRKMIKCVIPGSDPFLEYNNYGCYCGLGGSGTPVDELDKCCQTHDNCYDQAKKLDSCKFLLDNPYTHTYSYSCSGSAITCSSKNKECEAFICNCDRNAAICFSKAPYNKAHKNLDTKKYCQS
T3 sequence (P08637 17-254 F176V limits assumed): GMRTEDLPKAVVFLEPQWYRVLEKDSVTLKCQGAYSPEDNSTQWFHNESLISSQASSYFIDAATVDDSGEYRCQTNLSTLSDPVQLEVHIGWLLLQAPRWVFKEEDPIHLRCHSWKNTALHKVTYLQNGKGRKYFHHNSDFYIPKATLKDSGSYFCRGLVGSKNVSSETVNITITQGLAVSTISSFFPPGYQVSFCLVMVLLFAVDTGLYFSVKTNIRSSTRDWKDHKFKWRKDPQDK
T4 sequence (P12314 16-374): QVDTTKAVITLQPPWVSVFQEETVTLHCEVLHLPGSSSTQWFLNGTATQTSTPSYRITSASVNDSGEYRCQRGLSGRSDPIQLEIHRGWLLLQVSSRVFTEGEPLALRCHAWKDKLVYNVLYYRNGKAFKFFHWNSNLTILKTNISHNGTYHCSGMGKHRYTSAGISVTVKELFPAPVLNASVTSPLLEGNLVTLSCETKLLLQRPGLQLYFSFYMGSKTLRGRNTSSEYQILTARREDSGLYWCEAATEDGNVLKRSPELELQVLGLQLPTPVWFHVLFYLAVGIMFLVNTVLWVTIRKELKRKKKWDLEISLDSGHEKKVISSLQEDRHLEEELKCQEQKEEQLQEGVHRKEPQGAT
T5 sequence (P08637 17-254): as the sequence (P08637 17-254 F176V limits assumed) above, with V160F counted along it
T8 sequence (O75015 other isoform, or with tags, fused parts or gaps): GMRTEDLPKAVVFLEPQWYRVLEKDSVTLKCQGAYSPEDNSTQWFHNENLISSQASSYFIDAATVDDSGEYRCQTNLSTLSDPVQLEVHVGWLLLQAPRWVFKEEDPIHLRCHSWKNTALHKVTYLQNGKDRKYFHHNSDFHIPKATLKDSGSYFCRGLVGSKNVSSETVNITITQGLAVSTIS
T7 sequence (O75015 17-200 N65S/A78D): as the sequence (O75015 other isoform, or with tags, fused parts or gaps) above, with R20S, N49S, A62D, D66N, V90I counted along it
T10 sequence (O75015 17-200 N65S): as the sequence (O75015 other isoform, or with tags, fused parts or gaps) above, with R20S, N49S, D66N, V90I counted along it

B1: humanized antibody #2B (antibody, human IgG1, kappa)
heavy: not shown
light: EIVMTQSPATLSVSPGERATLSCKASQDVSTAVAWYQQKPGQAPRLLIYWASTRHTGIPARFSGSRSGTEYTLTISSLQSEDFAVYYCQQDYSTPPTFGGGTKVEIKRTVAAPSVFIFPPSDEQLKSGTASVVCLLNNFYPREAKVQWKVDNALQSGNSQESVTEQDSKDSTYSLSSTLTLSKADYEKHKVYACEVTHQGLSSPVTKSFNRGEC
notes: Humanized 14G9, IGHV1-46*01 version B heavy and IGKV3-15*01 version B light; also called Ab #2B; mAb #2B; copies: 2 + 2
For B1, the IC50 in assay [1] turned out to be 2.3 nM; in assay [2], 341 nM. Besides, in [3], the “EC50 for the restoration of the sPLA2-IB effect on IL-7 induced phosphoSTAT5 nuclear translocation in human CD4 T cells (75 nM sPLA2-GIB)” value came to 3.7 ng/mL. Besides, the Kd was 0.786 nM in assay [4] and 785 nM in [5]. For the same molecule, the koff in [4] worked out at 0.00225 s⁻¹; in assay [5] it was 0.142 s⁻¹. Moreover, the kon was determined as 2.89e+06 M⁻¹ s⁻¹ in assay [4] and 176000 M⁻¹ s⁻¹ in [5]. Also, the t½ in assay [4] came out at 5.1 min; in [5], 0.08 min. Further, the binding result in assay [6] and in assay [7] was “binds” each time.

B2: humanized antibody #2B2 (mutations L234A, L235E and P331S) (antibody, human IgG1, kappa)
heavy: QVQLVQSGAEVKKPGASVKVSCKASGYTFTNYWIHWVRQAPGQGLEWIGNIDPSDTRTHYNQKFKDRATLTVDKSTSTAYMELSSLRSEDTAVYYCARQTLYYEALDYWGQGTLVTVSSASTKGPSVFPLAPSSKSTSGGTAALGCLVKDYFPEPVTVSWNSGALTSGVHTFPAVLQSSGLYSLSSVVTVPSSSLGTQTYICNVNHKPSNTKVDKRVEPKSCDKTHTCPPCPAPEAEGGPSVFLFPPKPKDTLMISRTPEVTCVVVDVSHEDPEVKFNWYVDGVEVHNAKTKPREEQYNSTYRVVSVLTVLHQDWLNGKEYKCKVSNKALPASIEKTISKAKGQPREPQVYTLPPSREEMTKNQVSLTCLVKGFYPSDIAVEWESNGQPENNYKTTPPVLDSDGSFFLYSKLTVDKSRWQQGNVFSCSVMHEALHNHYTQKSLSLSPGK
light: EIVMTQSPATLSVSPGERATLSCKASQDVSTAVAWYQQKPGQAPRLLIYWASTRHTGIPARFSGSRSGTEYTLTISSLQSEDFAVYYCQQDYSTPPTFGGGTKVEIKRTVAAPSVFIFPPSDEQLKSGTASVVCLLNNFYPREAKVQWKVDNALQSGNSQESVTEQDSKDSTYSLSSTLTLSKADYEKHKVYACEVTHQGLSSPVTKSFNRGEC
notes: #2B with L234A, L235E and P331S in the heavy chain constant region; also called Ab #2B2; #2B2 humanized mAb; copies: 2 + 2
For B2, the binding result in [8], in assay [9], in assay [10], in assay [11], in [12] and in assay [13] was “no binding (tested: 100 ng/mL)” throughout. Moreover, the binding result in [14], in assay [15] and in assay [16] was “no binding (tested: 100 ng/mL)” throughout. Further, the Kd in assay [4] was found to be 0.796 nM; in assay [5], 880 nM. The values for the koff in [4] and in assay [5] were 0.00247 s⁻¹ and 0.146 s⁻¹, respectively. Moreover, the kon in assay [4] stood at 3.02e+06 M⁻¹ s⁻¹; in [5], 164000 M⁻¹ s⁻¹. The t½ in assay [4] amounted to 4.7 min; in assay [5], 0.079 min.
